According to article PMC3145769, “Cyclin A2 Mutagenesis Analysis: A New Insight into CDK Activation and Cellular Localization Requirements” (PLoS ONE, 2011):

B1: p27 (endogenous, NIH3T3) (natural protein, mouse (endogenous in NIH3T3), UniProt P46414 1-197, looked up)
chain: MSNVRVSNGSPSLERMDARQAEHPKPSACRNLFGPVNHEELTRDLEKHCRDMEEASQRKWNFDFQNHKPLEGRYEWQEVERGSLPEFYYRPPRPPKSACKVLAQESQDVSGSRQAVPLIGSQANSEDRHLVDQMPDSSDNPAGLAEQCPGMRKRPAAEDSSSQNKRANRTEENVSDGSPNAGTVEQTPKKPGLRRQT
notes: p27, endogenous protein of mouse NIH3T3 cells, detected by Western blot; source: endogenous, NIH3T3 cell extract
B2: CDK1 (endogenous, NIH3T3) (enzyme)
chain: not shown
notes: CDK1, endogenous protein of mouse NIH3T3 cells, detected by Western blot; source: endogenous, NIH3T3 cell extract
B3: p107 (endogenous, NIH3T3) (natural protein, mouse (endogenous in NIH3T3), UniProt Q64701 1-1063, looked up)
chain: MFEDEPHAEGAAAVAAAREALQALCQELNLDEGSAAEALDDFTAIRGNYSLEGEVIHWLACSLYVACRKSIIPTVGKGVMEGNCVSLTRILRSAKLSLIQFFSKMKKWMDMSNLPQEFRERIERLERNFEVSTVIFKKFEPIFLDIFQNPYEEPPKLPRSRKQRRIPCSVKDLFNFCWTLFVYTKGNFRMIGDDLVNSYHLLLCCLDLIFANAIMCPNRRDLLNPSFKGLPSDFHAPDFKAAEEPPCIIAVLCDLHDGLLVEAKGIKEHYFKPYISKLFDKKILKGECLLDLSSFTDNSKAVNKEYEEYVLTVGDFDERIFLGADAEEEIGTPRKFTADTPFGKLTSQASVECNLQQHFEKKRSFAPSTPLTGRRYLQEKEAVTTPVASATQSVSRLQSIVAGLKSAPSEQLLNIFESCMRNPMGNIIKIVKGIGETFCQHYTQSTDKQPGSHIDFAVNRLKLAEILYYKILETIMVQETRRLHGMDMSVLLEQDIFHKSLMACCLEIVLFAYSSPRTFPWIIEVLDLQPFYFYKVIEVVIRSEEGLSRDMVKHLNSIEEQILESLAWTNNSALWEALHASANRVPSCEEVIFPNNFEIGNGGNVQGHLPMMPMSPIIHPRVKEVRTDSGSLRQDMQPLSPISVHERYSSPAAGSAKRRLFGDDPPKDTLMDKIMAEGTKLKIAPSSVTAESLSISPGQALLTMATTTVTGTTGRKVTVPLHGIANDAGEITLVPISMNPTQESTAESPVSLTAQSLIGTSPKQTHLTKAQDAHLTGVSKPKRTGSLALFYRKVYHLASVRLRDLCLKLDVSNELRRKIWTCFEFTLVHCPDLMKDRHLDQLLLCAFYIMAKVTKEERTFQEIMKSYRNQPQANSHVYRSVLLKSIPGGVVVYNGDCEMTDGDIEDATKTPNCSSEPVKEERGDLIKFYNTVYVGRVKSFALKYDLSNQDHIMDAPPLSPFPHIKQQPGSPRRISQQHSLYVSPHKNGAGLTPRSALLYKFNGSPSKSLKDINNMIRQGEQKTKKRVIAISGDADSPAKRLCQENDDVLLKRLQDVVSERANH
notes: p107, endogenous protein of mouse NIH3T3 cells, detected by Western blot; source: endogenous, NIH3T3 cell extract
B4: p21 (endogenous, NIH3T3) (natural protein, mouse (endogenous in NIH3T3), UniProt P39689 1-159, looked up)
chain: MSNPGDVRPVPHRSKVCRCLFGPVDSEQLRRDCDALMAGCLQEARERWNFDFVTETPLEGNFVWERVRSLGLPKVYLSPGSRSRDDLGGDKRPSTSSALLQGPAPEDHVALSLSCTLVSERPEDSPGGPGTSQGRKRRQTSLTDFYHSKRRLVFCKRKP
notes: p21, endogenous protein of mouse NIH3T3 cells, detected by Western blot; source: endogenous, NIH3T3 cell extract

molecular target: T1, Cyclin A2 K256A, C-terminally fused to 3 Flag tags (mouse, UniProt P51943 1-422, K256A); assay: co-IP; anti-Flag M2 affinity gel on extracts of NIH3T3 cells transfected with 3xFlag Cyclin A2 alleles; endogenous partners detected by Western blot; densitometry (ImageQuantTL) normalised to immunoprecipitated Cyclin A2, percent of WT; repeated 5 times; settings: partners not purified
T1 construct: Cyclin A2, mouse; cDNA obtained from NIH3T3 cells by RT-PCR; source: NIH3T3 cells, transfected, in cell extracts; not shown: 3xFlag, C-terminal, kept
T1 sequence (P51943 whole entry K256A, the tested form may be a part): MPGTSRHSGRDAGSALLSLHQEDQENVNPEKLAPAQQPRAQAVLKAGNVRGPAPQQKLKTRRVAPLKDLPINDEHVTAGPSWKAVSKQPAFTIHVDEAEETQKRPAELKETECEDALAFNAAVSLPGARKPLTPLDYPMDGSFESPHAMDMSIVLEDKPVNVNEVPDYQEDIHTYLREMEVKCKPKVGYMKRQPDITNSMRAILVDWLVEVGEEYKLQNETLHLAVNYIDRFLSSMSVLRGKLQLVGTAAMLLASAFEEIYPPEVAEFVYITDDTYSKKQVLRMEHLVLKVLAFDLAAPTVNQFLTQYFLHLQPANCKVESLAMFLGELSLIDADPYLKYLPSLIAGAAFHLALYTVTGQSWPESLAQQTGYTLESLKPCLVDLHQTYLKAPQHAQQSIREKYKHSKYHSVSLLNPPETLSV

First: B1
Second: B2
The “percent co-precipitated relative to WT” value of the first is higher: 19.3% for the first, 3.8% for the second.

Compared with B3, B4 is higher in “percent co-precipitated relative to WT” value: 17% for the first, 41.9% for the second.

molecular target: T2, Cyclin A2 M200A, C-terminally fused to 3 Flag tags (mouse, UniProt P51943 1-422, M200A); assay: as above; settings: partners not purified
T2 construct: Cyclin A2, mouse; cDNA obtained from NIH3T3 cells by RT-PCR; source: NIH3T3 or HEK 293 cells, transfected, in cell extracts; not shown: 3xFlag, C-terminal, kept
T2 sequence (P51943 whole entry M200A, the tested form may be a part): as the sequence (P51943 whole entry K256A, the tested form may be a part) above, with M200A, A256K counted along it

Compared with B1, B2 is higher in “percent co-precipitated relative to WT” value: 69.2% for the first, 72.8% for the second.

Going from B3 to B4, the “percent co-precipitated relative to WT” value rises from 79.2% to 100%.

molecular target: T3, Cyclin A2 WT, C-terminally fused to 3 Flag tags (mouse, UniProt P51943 1-422); assay: as above; settings: partners not purified
T3 construct: Cyclin A2, mouse; cDNA obtained from NIH3T3 cells by RT-PCR; Same construct transfected into mouse NIH3T3 (assay a1) and human HEK 293 (assay a2); also called WT Cyclin A2 allele; Flag tagged WT Cyclin A2; source: NIH3T3 or HEK 293 cells, transfected, in cell extracts; not shown: 3xFlag, C-terminal, kept
T3 sequence (P51943 whole entry, the tested form may be a part): as the sequence (P51943 whole entry K256A, the tested form may be a part) above, with A256K counted along it

B1 and B2 are the same in “percent co-precipitated relative to WT” value: 100% for the first, 100% for the second.

B3 and B4 are the same in “percent co-precipitated relative to WT” value: 100% for the first, 100% for the second.

molecular target: T4, Cyclin A2 W207A, C-terminally fused to 3 Flag tags (mouse, UniProt P51943 1-422, W207A); assay: as above; settings: partners not purified
T4 construct: Cyclin A2, mouse; cDNA obtained from NIH3T3 cells by RT-PCR; source: NIH3T3 or HEK 293 cells, transfected, in cell extracts; not shown: 3xFlag, C-terminal, kept
T4 sequence (P51943 whole entry W207A, the tested form may be a part): as the sequence (P51943 whole entry K256A, the tested form may be a part) above, with W207A, A256K counted along it

Going from B2 to B4, the “percent co-precipitated relative to WT” value rises from 15.3% to 79.2%.

molecular target: T5, Cyclin A2 L282R, C-terminally fused to 3 Flag tags (mouse, UniProt P51943 1-422, L282R); assay: as above; settings: partners not purified
T5 construct: Cyclin A2, mouse; cDNA obtained from NIH3T3 cells by RT-PCR; source: NIH3T3 cells, transfected, in cell extracts; not shown: 3xFlag, C-terminal, kept
T5 sequence (P51943 whole entry L282R, the tested form may be a part): as the sequence (P51943 whole entry K256A, the tested form may be a part) above, with A256K, L282R counted along it

First: B1
Second: B2
The “percent co-precipitated relative to WT” value of the first is higher: 44.5% for the first, 19.8% for the second.

Going from B3 to B4, the “percent co-precipitated relative to WT” value rises from 58.6% to 65.7%.

molecular target: T6, Cyclin A2 Double (W207L, E210Q), C-terminally fused to 3 Flag tags (mouse, UniProt P51943 1-422, W207L | E210Q); assay: as above; settings: partners not purified
T6 construct: Cyclin A2, mouse; cDNA obtained from NIH3T3 cells by RT-PCR; also called Double mutant; source: NIH3T3 cells, transfected, in cell extracts; not shown: 3xFlag, C-terminal, kept
T6 sequence (P51943 whole entry W207L/E210Q, the tested form may be a part): as the sequence (P51943 whole entry K256A, the tested form may be a part) above, with W207L, E210Q, A256K counted along it

Going from B2 to B4, the “percent co-precipitated relative to WT” value falls from 9.2% to 8.2%.

molecular target: T7, Cyclin A2 E180A, C-terminally fused to 3 Flag tags (mouse, UniProt P51943 1-422, E180A); assay: as above; settings: partners not purified
T7 construct: Cyclin A2, mouse; cDNA obtained from NIH3T3 cells by RT-PCR; source: NIH3T3 cells, transfected, in cell extracts; not shown: 3xFlag, C-terminal, kept
T7 sequence (P51943 whole entry E180A, the tested form may be a part): as the sequence (P51943 whole entry K256A, the tested form may be a part) above, with E180A, A256K counted along it

Going from B3 to B4, the “percent co-precipitated relative to WT” value falls from 19.6% to 11.7%.

molecular target: T8, Cyclin A2 Triple (M200A, L204A, W207A), C-terminally fused to 3 Flag tags (mouse, UniProt P51943 1-422, M200A | L204A | W207A); assay: as above; settings: partners not purified
T8 construct: Cyclin A2, mouse; cDNA obtained from NIH3T3 cells by RT-PCR; also called Triple mutant; source: NIH3T3 or HEK 293 cells, transfected, in cell extracts; not shown: 3xFlag, C-terminal, kept
T8 sequence (P51943 whole entry M200A/L204A/W207A, the tested form may be a part): as the sequence (P51943 whole entry K256A, the tested form may be a part) above, with M200A, L204A, W207A, A256K counted along it

B2 was tested, and the “percent co-precipitated relative to WT” value was 0.4%.

molecular target: T9, Cyclin A2 D171A, C-terminally fused to 3 Flag tags (mouse, UniProt P51943 1-422, D171A); assay: as above; settings: partners not purified
T9 construct: Cyclin A2, mouse; cDNA obtained from NIH3T3 cells by RT-PCR; source: NIH3T3 or HEK 293 cells, transfected, in cell extracts; not shown: 3xFlag, C-terminal, kept
T9 sequence (P51943 whole entry D171A, the tested form may be a part): as the sequence (P51943 whole entry K256A, the tested form may be a part) above, with D171A, A256K counted along it

B1 and B2 are the same in “percent co-precipitated relative to WT” value: 100% for the first, 100% for the second.

B3 and B4 are the same in “percent co-precipitated relative to WT” value: 100% for the first, 100% for the second.

molecular target: T10, Cyclin A2 E285A, C-terminally fused to 3 Flag tags (mouse, UniProt P51943 1-422, E285A); assay: as above; settings: partners not purified
T10 construct: Cyclin A2, mouse; cDNA obtained from NIH3T3 cells by RT-PCR; source: NIH3T3 cells, transfected, in cell extracts; not shown: 3xFlag, C-terminal, kept
T10 sequence (P51943 whole entry E285A, the tested form may be a part): as the sequence (P51943 whole entry K256A, the tested form may be a part) above, with A256K, E285A counted along it

First: B1
Second: B2
The “percent co-precipitated relative to WT” value of the first is higher: 36.7% for the first, 4.7% for the second.

First: B3
Second: B4
The “percent co-precipitated relative to WT” value of the first is lower: 8.6% for the first, 78.2% for the second.

molecular target: T11, Cyclin A2 L204A, C-terminally fused to 3 Flag tags (mouse, UniProt P51943 1-422, L204A); assay: as above; settings: partners not purified
T11 construct: Cyclin A2, mouse; cDNA obtained from NIH3T3 cells by RT-PCR; source: NIH3T3 or HEK 293 cells, transfected, in cell extracts; not shown: 3xFlag, C-terminal, kept
T11 sequence (P51943 whole entry L204A, the tested form may be a part): as the sequence (P51943 whole entry K256A, the tested form may be a part) above, with L204A, A256K counted along it

Compared with B1, B2 is higher in “percent co-precipitated relative to WT” value: 15.2% for the first, 57.2% for the second.

Compared with B3, B4 is higher in “percent co-precipitated relative to WT” value: 65.6% for the first, 100% for the second.

molecular target: T12, Cyclin A2 E210Q, C-terminally fused to 3 Flag tags (mouse, UniProt P51943 1-422, E210Q); assay: as above; settings: partners not purified
T12 construct: Cyclin A2, mouse; cDNA obtained from NIH3T3 cells by RT-PCR; source: NIH3T3 cells, transfected, in cell extracts; not shown: 3xFlag, C-terminal, kept
T12 sequence (P51943 whole entry E210Q, the tested form may be a part): as the sequence (P51943 whole entry K256A, the tested form may be a part) above, with E210Q, A256K counted along it

Compared with B1, B2 is lower in “percent co-precipitated relative to WT” value: 95.7% for the first, 45.3% for the second.

First: B3
Second: B4
The “percent co-precipitated relative to WT” value of the first is higher: 70% for the first, 60.2% for the second.
